What was measured:
human 4-1BB on cells [1] = biological target: T1, human 4-1BB on cells (human, UniProt Q07011 24-255); assay: cell-based or functional assay
human 4-1BB on cells [2] = biological target: T1, human 4-1BB on cells; assay: flow cytometry, activated human CD8+ T cells
Experimental: (§1) Plates were centrifuged 4 minutes with 400×g at 4° C. and supernatant was discarded. […] Afterwards cells were washed once with 200 μL/well cold FACS buffer (DPBS supplied with 2% (v/v) FBS, 5 mM EDTA pH8 (Amresco, Cat. No. E177) and 7.5 mM sodium azide (Sigma-Aldrich S2002)). […] Cells were washed four times with 200 μL/well 4° C.
Cells were washed twice with 200 μL FACS buffer/well and fixated by resuspending in 50 μL/well DPBS containing 1% Formaldehyde (Sigma, HT501320-9.5L). Cells were acquired the same or next day using 3-laser MACSQuant Analyzer 10 (Miltenyi Biotech). Gates were set on CD8⁺ and CD4⁺ T cells and the geo mean of fluorescence intensity (MFI) of the secondary detection antibody was used to analyze binding of primary antibodies. Using Graph Pad Prism (Graph Pad Software Inc.) data was baselined by subtracting the blank values (no primary antibody added) and the EC₅₀ values were calculated using non-linear regression curve fit (robust fit).

[3] = biological target: T2, human fibroblast activation protein (huFAP) on cells (human, UniProt Q12884 1-760); assay: flow cytometry, NIH/3T3-huFAP clone 19
T2 construct: also called NIH/3T3-huFAP clone 39; NIH/3T3-huFAP clone 19
Experimental: Cells were maintained in the presence of 1.5 μg/mL puromycin (InvivoGen, Cat.-No.: ant-pr-5). […] Plates were incubated for 30 minutes at 4° C. and washed once with 200 μL 4° C. cold DPBS buffer. […] Cells were washed twice with 200 μL 4° C. FACS buffer and then resuspended in 50 μL/well DPBS containing 1% Formaldehyde for fixation. The same or the next day cells were resuspended in 100 μL FACS-buffer and acquired using 5-laser LSR-Fortessa (BD Bioscience with DIVA software) or MACSQuant Analyzer 10 (Miltenyi Biotec).

[4] = biological target: T3, recombinant human OX40 Fc(kih) (human, UniProt P0DOX5 223-449 = IgG part, biotin on C-terminal Avi tag where used biotinylated); assay: phage display, Fab ELISA
T3 construct: antigen Fc knob chain plus Fc hole chain; also called monomeric human OX40 antigen Fc(kih) fusion; biotinylated human OX40

[5] = biological target: T4, recombinant human GITR Fc(kih) (human, UniProt P0DOX5 223-449 = IgG part, biotin on C-terminal Avi tag where used biotinylated); assay: SPR, GITR Fc(kih) on SA chip, FAP second analyte
T4 construct: also called hu GITR-Fc; human monomeric GITR-Fc fusion
Experimental: (§2) All SPR experiments were performed on a Biacore T200 at 25° C. with HBS-EP as running buffer (0.01 M HEPES pH 7.4, 0.15 M NaCl, 3 mM EDTA, 0.005% Surfactant P20, Biacore, Freiburg/Germany). […] Immobilization levels up to 1000 resonance units (RU) were used. The bispecific constructs targeting GITR and FAP were passed at a concentration range of 200 nM with a flow of 30 μL/minute through the flow cells over 90 seconds and dissociation was set to zero sec. Human FAP was injected as second analyte with a flow of 30 μL/minute through the flow cells over 90 seconds at a concentration of 500 nM. The dissociation was monitored for 120 sec. Bulk refractive index differences were corrected for by subtracting the response obtained in a reference flow cell, where no protein was immobilized.

[6] = biological target: T5, human FAP (His-tagged ectodomain) (human, UniProt Q12884 27-760); assay: SPR, GITR Fc(kih) on SA chip, FAP second analyte
T5 construct: SPR texts say 'human FAP' or 'His-tagged ... dimeric FAP'; also called hu FAP; human FAP (analyte 2)
Experimental: as §2

[7] = biological target: T2, human fibroblast activation protein …; assay: flow cytometry, 3T3-huFAP
[8] = biological target: T6, human GITR on HEK cells (HEK-GITR) (human, UniProt Q9Y5U5 26-241); assay: flow cytometry, HEK-GITR
T6 construct: also called cell surface expressed human GITR
T6 sequence: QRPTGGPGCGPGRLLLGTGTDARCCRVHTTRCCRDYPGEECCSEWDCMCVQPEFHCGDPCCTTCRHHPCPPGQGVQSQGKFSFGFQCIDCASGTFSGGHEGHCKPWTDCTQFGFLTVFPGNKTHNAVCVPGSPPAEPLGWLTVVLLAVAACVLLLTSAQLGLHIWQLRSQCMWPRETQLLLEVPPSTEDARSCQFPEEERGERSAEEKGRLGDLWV
Experimental: Cells were washed twice with complete media and once with PBS+2% FBS before adjusting cell density to 1×10⁷ cells/mL in PBS+2% FBS.
Plates were centrifuged at 4° C., 3 minutes at 600×g and supernatant was flicked off. Cells were resuspended in 50 μL/well of 4° C. cold PBS+2% FBS containing titrated anti-GITR antibody constructs for 120 minutes at 4° C. Plates were washed twice with 200 μL/well 4° C. PBS+2% FBS to remove unbound construct. […] Plates were centrifuged at 4° C. for 3 minutes at 600×g and washed twice with PBS+2% FBS. […] Plates were centrifuged at 4° C., 3 minutes at 600×g and supernatant was flicked off.

[9] = biological target: T7, recombinant human 4-1BB Fc(kih) (human, UniProt P0DOX5 223-449 = IgG part, biotin on C-terminal Avi tag where used biotinylated); assay: SPR, captured IgG, 4-1BB Fc(kih) analyte
T7 construct: also called hu4-1BB; biotinylated human 4-1BB
Experimental: (§3) All SPR experiments were performed on a Biacore T200 at 25° C. with HBS-EP as running buffer (0.01 M HEPES pH 7.4, 0.15 M NaCl, 3 mM EDTA, 0.005% Surfactant P20, Biacore, Freiburg/Germany).
Anti-human Fab antibody (Biacore, Freiburg/Germany) was directly coupled on a CM5 chip at pH 5.0 using the standard amine coupling kit (Biacore, Freiburg/Germany). The immobilization level was approximately 7500 RU. […] The dissociation was monitored for 120 seconds. Bulk refractive index differences were corrected for by subtracting the response obtained on reference flow cell.

human 4-1BB on cells [10] = biological target: T1, human 4-1BB on cells; assay: cell-based or functional assay; remark: listed apart in the source
[11] = biological target: mouse 4-1BB on activated mouse splenocytes (mouse, UniProt P20334 24-256); assay: flow cytometry, activated mouse T cells
Experimental: Cells were incubated for 30 min at 4° C., washed twice with 200 μL/well FACS-buffer and resuspended for fixation with 50 μL/well DPBS containing 1% (v/v) formaldehyde. The next day cells were resuspended in 200 μL/well FACS buffer and acquired using the 2-laser Cantoll (BD Bioscience with DIVA software) or 5-laser Fortessa (BD Bioscience with DIVA software). Gates were set on CD8⁺ and CD4⁺ T cells and the median fluorescence intensity (MFI) of the secondary detection antibody was used to analyze binding of primary antibodies. Using Graph Pad Prism (Graph Pad Software Inc.) data was baselined by subtracting the blank values (no primary antibody added) and the EC₅₀ values were calculated using non-linear regression curve fit (robust fit).

[12] = biological target: T8, cynomolgus 4-1BB on activated cynomolgus PBMC (cynomolgus, UniProt Q07011 24-255 (human entry)); assay: flow cytometry, activated cynomolgus PBMC
T8 chain: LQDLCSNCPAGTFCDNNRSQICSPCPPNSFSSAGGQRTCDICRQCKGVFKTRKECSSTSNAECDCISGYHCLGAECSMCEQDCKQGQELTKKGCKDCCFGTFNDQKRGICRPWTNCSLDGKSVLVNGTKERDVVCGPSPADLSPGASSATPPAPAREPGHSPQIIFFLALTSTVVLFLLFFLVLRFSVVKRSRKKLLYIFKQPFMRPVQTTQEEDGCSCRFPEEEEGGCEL
Experimental: Cells were washed twice with FACS buffer and resuspended in 100 μL/well FACS buffer supplied with 0.2 μg/mL DAPI to discriminated dead from living cells. Cells were immediately acquired using a 5-laser Fortessa (BD Bioscience with DIVA software). Gates were set on CD8⁺ and CD4⁺ T cells and the median fluorescence intensity (MFI) of the secondary detection antibody was used to analyze binding of primary antibodies. Using Graph Pad Prism (Graph Pad Software Inc.) data was baselined by subtracting the blank values (no primary antibody added) and the EC₅₀ values were calculated using non-linear regression curve fit (robust fit).

human 4-1BB on cells [13] = biological target: T1, human 4-1BB on cells; assay: flow cytometry, activated human CD8 T cells
Experimental: as §1
Cells were washed twice with 200 μL FACS buffer/well and fixated by resuspending in 50 μL/well DPBS containing 1% Formaldehyde (Sigma, HT501320-9.5L). Cells were acquired the same or next day using a 3-laser Canto II (BD Bioscience with DIVA software) or a 5-laser Fortessa (BD Bioscience with DIVA software) or 3-laser MACSQuant Analyzer 10 (Miltenyi Biotech). Gates were set on CD8⁺ and CD4⁺ T cells and the median fluorescence intensity (MFI) or geo mean of fluorescence intensity of the secondary detection antibody was used to analyze binding of primary antibodies. Using Graph Pad Prism (Graph Pad Software Inc.) data was baselined by subtracting the blank values (no primary antibody added) and the EC50 values were calculated using non-linear regression curve fit (robust fit).

[14] = biological target: recombinant cynomolgus 4-1BB Fc(kih) (cynomolgus, UniProt P0DOX5 223-449 = IgG part, biotin on C-terminal Avi tag where used biotinylated); assay: SPR, captured IgG, cyno 4-1BB Fc(kih) analyte
Experimental: as §3
Anti-human Fab antibody (Biacore, Freiburg/Germany) was directly coupled on a CM5 chip at pH 5.0 using the standard amine coupling kit (Biacore, Freiburg/Germany). The immobilization level was approximately 9000 RU.

Sequence of mouse 4-1BB on activated mouse splenocytes (P20334 24-256 limits assumed): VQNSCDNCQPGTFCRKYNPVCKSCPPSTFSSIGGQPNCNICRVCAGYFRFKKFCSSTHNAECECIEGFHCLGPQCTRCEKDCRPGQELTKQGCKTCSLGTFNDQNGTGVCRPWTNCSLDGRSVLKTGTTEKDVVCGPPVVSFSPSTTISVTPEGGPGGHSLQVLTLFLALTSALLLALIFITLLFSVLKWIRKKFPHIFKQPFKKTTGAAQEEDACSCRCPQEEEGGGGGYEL

B1: 12B3/FAP P329GLALA IgG1 2+2 (bispecific antibody)
heavy: not shown
light 1: not shown
light 2: EIVLTQSPGTLSLSPGERATLSCRASQSVSRSYLAWYQQKPGQAPRLLIIGASTRATGIPDRFSGSGSGTDFTLTISRLEPEDFAVYYCQQGQVIPPTFGQGTKVEIKSSASTKGPSVFPLAPSSKSTSGGTAALGCLVKDYFPEPVTVSWNSGALTSGVHTFPAVLQSSGLYSLSSVVTVPSSSLGTQTYICNVNHKPSNTKVDKKVEPKSCD
notes: also called 12B3×FAP (28H1) 2+2
- EC50 of NFκB/luciferase activation, 4-1BB reporter HeLa with NIH/3T3-huFAP clone 19 (human 4-1BB on cells [1]): 0.2 nM
- EC50 (human 4-1BB on cells [2]): 2 nM
- EC50 [3]: 12.2 nM

B2: clone 17A9 Fab (Fab, V domains shown)
VH: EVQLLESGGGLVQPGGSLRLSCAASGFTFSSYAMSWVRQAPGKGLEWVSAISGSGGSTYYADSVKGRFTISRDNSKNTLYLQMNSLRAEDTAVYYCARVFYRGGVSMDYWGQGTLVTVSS
VL: SSELTQDPAVSVALGQTVRITCQGDSLRSYYASWYQQKPGQAPVLVIYGKNNRPSGIPDRFSGSSSGNTASLTITGAQAEDEADYYCNSRVMPHNRVFGGGTKLTV
notes: phage library Fab with CH1/CL and tags
- binding result [4]: binds

B3: (GITR-FAP) [8A06] 4+1 construct (bispecific antibody, human IgG1, lambda, L234A L235A)
heavy 1: not shown
heavy 2: not shown
light: SSELTQDPAVSVALGQTVRITCQGDSLRSYYASWYQQKPGQAPVLVIYGKNNRPSGIPDRFSGSSSGNTASLTITGAQAEDEADYYCNSPQTSGSAVFGGGTKLTVLGQPKAAPSVTLFPPSSEELQANKATLVCLISDFYPGAVTVAWKADSSPVKAGVETTTPSKQSNNKYAASSYLSLTPEQWKSHRSYSCQVTHEGSTVEKTVAPTECS
- binding result [5]: binds

B4: (GITR-FAP) [8A06] 4+2 construct (bispecific antibody, human IgG1, lambda, L234A L235A)
heavy: not shown
light 1: SSELTQDPAVSVALGQTVRITCQGDSLRSYYASWYQQKPGQAPVLVIYGKNNRPSGIPDRFSGSSSGNTASLTITGAQAEDEADYYCNSPQTSGSAVFGGGTKLTVLGQPKAAPSVTLFPPSSEELQANKATLVCLISDFYPGAVTVAWKADSSPVKAGVETTTPSKQSNNKYAASSYLSLTPEQWKSHRSYSCQVTHEGSTVEKTVAPTECS
light 2: EIVLTQSPGTLSLSPGERATLSCRASQSVSRSYLAWYQQKPGQAPRLLIIGASTRATGIPDRFSGSGSGTDFTLTISRLEPEDFAVYYCQQGQVIPPTFGQGTKVEIKSSASTKGPSVFPLAPSSKSTSGGTAALGCLVKDYFPEPVTVSWNSGALTSGVHTFPAVLQSSGLYSLSSVVTVPSSSLGTQTYICNVNHKPSNTKVDKKVEPKSC
- binding result [6]: binds
- binding result [7]: binds
- EC50 [8]: 3.85 nM

B5: 9B11 P329GLALA IgG1 (antibody, V domains shown)
VH: QVQLVQSGAEVKKPGSSVKVSCKASGGTFSSYAISWVRQAPGQGLEWMGGIIPIFGTANYAQKFQGRVTITADKSTSTAYMELSSLRSEDTAVYYCARSSGAYPGYFDYWGQGTTVTVSS
VL: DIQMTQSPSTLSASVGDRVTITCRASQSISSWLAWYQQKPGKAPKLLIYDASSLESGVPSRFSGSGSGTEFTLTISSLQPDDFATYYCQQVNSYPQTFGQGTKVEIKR
notes: anti-4-1BB
- Kd [9]: 140 nM
- koff [9]: 0.0039 s⁻¹
- kon [9]: 27000 M⁻¹ s⁻¹
- EC50 of increase of IFNγ secretion in activated CD8+ T cells (surface-immobilized IgG) (human 4-1BB on cells [10]): 0.12 nM
- binding result [11]: no binding
- binding result [12]: binds
- EC50 (human 4-1BB on cells [13]): 4.49 nM
- Kd [14]: 78 nM
- koff [14]: 0.002 s⁻¹
- kon [14]: 26000 M⁻¹ s⁻¹

From patent US20220073646A1 (Hoffmann-La Roche, published 2022)
